# Laboratory results published in paper PMC5065529, “Wnt Signalosome Assembly by DEP Domain Swapping of Dishevelled” (Molecular Cell, 2016).
# B1: SNAP-FZD5 (Frizzled 5), wild type [human] / DEP_(414–507)-GFP, minimal DEP domain of DVL2 [human] (parent)
# chain 1: GRGLSVHTDMASVTKAMAAPESGLEVRDRMWLKITIPNAFLGSDVVDWLYHHVEGFPERREARKYASGLLKAGLIRHTVNKITFSEQCYYVFGD
# chain 2: ASKAPVCQEITVPMCRGIGYNLTHMPNQFNHDTQDEAGLEVHQFWPLVEIQCSPDLRFFLCSMYTPICLPDYHKPLPPCRSVCERAKAGCSPLMRQYGFAWPERMSCDRLPVLGRDAEVLCMDYNRSEATTAPPRPFPAKPTLPGPPGAPASGGECPAGGPFVCKCREPFVPILKESHPLYNKVRTGQVPNCAVPCYQPSFSADERTFATFWIGLWSVLCFISTSTTVATFLIDMERFRYPERPIIFLSACYLCVSLGFLVRLVVGHASVACSREHNHIHYETTGPALCTIVFLLVYFFGMASSIWWVILSLTWFLAAGMKWGNEAIAGYAQYFHLAAWLIPSVKSITALALSSVDGDPVAGICYVGNQNLNSLRGFVLGPLVLYLLVGTLFLLAGFVSLFRIRSVIKQGGTKTDKLEKLMIRIGIFTLLYTVPASIVVACYLYEQHYRESWEAALTCACPGHDTGQPRAKPEYWVLMLKYFMCLVVGITSGVWIWSGKTVESWRRFTSRCCCRPRRGHKSGGAMAAGDYPEASAALTGRTGPPGPAATYHKQVSLSHV
# Variants of: B1
# Experiment: FZD5-dependent PM recruitment of DEP-GFP (cell scoring)
# Details: with DEP_(414–507)-GFP, 100 cells scored in each case
variant,measurement,setting,value
chain 2 S503A,screen value,"parent: 52, read off a plot",50 % of cells
same,screen value,"parent: 88, read off a plot",93 % of cells
chain 2 A326T,screen value,"parent: 88, read off a plot",41 % of cells
chain 2 V406A,screen value,"parent: 52, read off a plot",49 % of cells
same,screen value,"parent: 88, read off a plot",86 % of cells
chain 2 T230A,screen value,"parent: 52, read off a plot",1 % of cells
same,screen value,"parent: 88, read off a plot",12 % of cells
chain 2 S509A,screen value,"parent: 52, read off a plot",52 % of cells
same,screen value,"parent: 88, read off a plot",88 % of cells
chain 2 R237A,screen value,"parent: 52, read off a plot",12 % of cells
same,screen value,"parent: 88, read off a plot",77 % of cells
chain 2 R510A,screen value,"parent: 52, read off a plot",49 % of cells
same,screen value,"parent: 88, read off a plot",85 % of cells
chain 2 S497A,screen value,"parent: 52, read off a plot",60 % of cells
same,screen value,"parent: 88, read off a plot",90 % of cells
chain 2 L417A,screen value,"parent: 52, read off a plot",5 % of cells
same,screen value,"parent: 88, read off a plot",37 % of cells
chain 2 I327A,screen value,"parent: 88, read off a plot",30 % of cells
chain 2 P241A,screen value,"parent: 88, read off a plot",20 % of cells
chain 2 W504A,screen value,"parent: 52, read off a plot",3 % of cells
same,screen value,"parent: 88, read off a plot",24 % of cells
chain 2 T500A,screen value,"parent: 52, read off a plot",6 % of cells
same,screen value,"parent: 88, read off a plot",36 % of cells
chain 2 K499A,screen value,"parent: 52, read off a plot",5 % of cells
same,screen value,"parent: 88, read off a plot",62 % of cells
chain 2 E502A,screen value,"parent: 52, read off a plot",50 % of cells
same,screen value,"parent: 88, read off a plot",92 % of cells
chain 2 L420A,screen value,"parent: 88, read off a plot",41 % of cells
chain 2 W494A,screen value,"parent: 88, read off a plot",21 % of cells
chain 2 Y240A,screen value,"parent: 52, read off a plot",8 % of cells
same,screen value,"parent: 88, read off a plot",32 % of cells
chain 2 R506A,screen value,"parent: 52, read off a plot",49 % of cells
same,screen value,"parent: 88, read off a plot",96 % of cells
chain 2 R239A,screen value,"parent: 52, read off a plot",11 % of cells
same,screen value,"parent: 88, read off a plot",56 % of cells
chain 2 K321A,screen value,"parent: 52, read off a plot",45 % of cells
same,screen value,"parent: 88, read off a plot",92 % of cells
chain 2 I403A,screen value,"parent: 52, read off a plot",34 % of cells
same,screen value,"parent: 88, read off a plot",70 % of cells
chain 2 G323T,screen value,"parent: 52, read off a plot",56 % of cells
same,screen value,"parent: 88, read off a plot",92 % of cells
